Source: patent US20230002486A1 (SPARX THERAPEUTICS, published 2023)

Columns and labels:
[1] = biological target: T1, CLDN 18.2 expressed on stably transfected cells (HEK293T-CLDN 18.2, MiaPaCa-CLDN 18.2) (human); experiment: cell-based or functional assay
[2] = biological target: T2, CLDN 18.2 fused with GFP at its C-terminal, on MCF7 cells (MCF7-CLDN 18.2) (human); experiment: cell-based or functional assay
[3] = biological target: T1, CLDN 18.2 expressed on stably …; experiment: cell-based or functional assay; remark: listed apart in the source
[4] = biological target: T2, CLDN 18.2 fused with GFP at its …; experiment: cell-based or functional assay; remark: listed apart in the source
[5] = biological target: claudin 18.2 (CLDN 18.2), recombinant protein (human); experiment: direct ELISA, coated CLDN 18.2 (FIG. 28A)
[6] = biological target: claudin 18.2 (CLDN 18.2), recombinant protein (human); experiment: direct ELISA, coated recombinant CLDN 18.2
From the text: ELISA assay was employed to determine the binding properties of the bispecific antibodies to their antigens. […] The wells were then reacted with goat anti human IgG antibody conjugated with horseradish peroxidase (HRP).

[7] = biological target: claudin 18.2 (CLDN 18.2), recombinant protein (human); experiment: direct ELISA, coated recombinant CLDN 18.2 (FIG. 7A)

T1 sequence (chain, as listed by the source limits assumed): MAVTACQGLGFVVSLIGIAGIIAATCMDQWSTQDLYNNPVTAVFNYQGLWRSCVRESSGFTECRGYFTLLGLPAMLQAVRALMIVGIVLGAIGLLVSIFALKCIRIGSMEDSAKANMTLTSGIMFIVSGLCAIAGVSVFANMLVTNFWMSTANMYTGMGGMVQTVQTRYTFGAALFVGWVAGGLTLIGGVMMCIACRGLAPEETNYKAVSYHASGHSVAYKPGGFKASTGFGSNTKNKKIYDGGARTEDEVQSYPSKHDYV
Sequence of claudin 18.2 (CLDN 18.2), recombinant protein (human) (chain, as listed by the source limits assumed): as above
T2 sequence (chain, as listed by the source): as the sequence (chain, as listed by the source limits assumed) above

ADCC reporter assay, EC50 (FIG. 18) [1]: 0.0561 nM | CDC against Mia Paca-CLDN 18.2 cells, EC50 (FIG. 17B) [1]: 0.52 nM | ADCC reporter assay, EC50 (FIG. 24A) [2]: 4.43 pM | ADCC Reporter in HEK293-CLDN18.2, EC50 [3]: 0.056 nM | CDC in HEK293-CLDN 18.2, EC50 [3]: 0.43 nM | CDC in MiaPaCa-CLDN 18.2, EC50 [3]: 0.52 nM | ADCC Reporter in MCF7-CLDN 18.2, EC50 [4]: 6 pM | Kd [5]: 0.0819 nM | Kd [6]: 0.13 nM | Kd [7]: 0.133 nM
B1: h5C9ob, monospecific parent anti-CLDN 18.2 monoclonal antibody (IgG) (antibody, V domains shown)
VH: EVQLVESGGGLVQPGGSLRLSCAVSGYTFSMNWVRQAPGKGLEWVAWINMYTGEPTYADDFKGRFTISRDDSKNTLYLQMNSLRAEDTAVYYCARLYNGNSLDYWGQGTLVTVSS
VL: DIQMTQSPSSLSASVGDRVTITCKSSQSLLNSGNQKSYLTWYQQKPGKAPKLLIYWASTLESGVPSRFSGSGSGTDYTLTISSLQPEDFATYYCQNAYFFPFTFGQGTKVEIKR
notes: Whole human IgG1 produced as described under 'Production of Recombinant Antibodies'
